Test: soluble fraction after stress (log2 fold change); higher = more stays soluble; pooled small domains, quantitative proteomics
Conditions: stress: 50 degC
Method in brief: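 The measure of aggregation propensity here is the base-two logarithm of the fold change in the soluble amount of each protein after stress. A higher value means more of that protein stays in solution. Stress was applied at 50°C to pooled libraries of small protein domains, read out by high-throughput quantitative proteomics.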

Row | Sequence | soluble fraction (log2)
1 | HMRNISLSLRWHSGEWTADRLKSEVLALPGAMDMTVFEPQSQAYLRVEQGFDTKLLPAGIDVH | -0.927
2 | HMRNNKLRRANKLKTEFENLPHIGKKRAHVLLKAFGSTENLKMTTAQALSEAAKISLKQAEEVLEAVRG | -0.0475
3 | HMRNQIRAVITPVPNQERYTVEMTIDDDAGNLLTLQMAAPDRQQAAEFAQRFQKHPEALYHAVLSVLL | 0.0702
4 | HMRNSFTVENTGERLDVFLTGQMPEFSRSHIQKLIASGQAWVNGVNRKGNFKLKPHDVVELEVPEPE | 0.53
5 | HMRNSVQREWIYDYIQRQDAHLSADEIYEGLLKEGKNISLATVYRNLSILVDEYKIASVMTDSKKQVYDK | -1.23
6 | HMRNTPQRRHAILALLSEQGEVSVDALAKRFSTSEVTIRKDLAAMESHGLLLRRYGGAVPMPQELI | -0.928
7 | HMRPEVALSSRELEILEALATGKSNKELAQRLFISEATVKTHLIHIYQKLGVDTRTAAVTVARERKL | -1.52
8 | HMRPEVTEHLKTADAILHGGDINRQSIVDELRQYAPLYIVRGNNDKDWAEAIPHDLTVTLGGVTFFMVHNR | -0.0555
9 | HMRPFAMNLLEKHKADIEVWLKHPNMTNTQIKRLLEELGTSVSVSSIDRFISTSFPKLPKHT | -0.17
10 | HMRPIWVQLADDFRHRIVSGQWPPGSKIPSVRELAAETGVNPNTVQRALGALDGEGLTATERTAGRFVTT | -0.0768
11 | HMRPKVADIDYFDGKTFTIEDGSKHSITTSEAKKIYFYLVKNGYVDDESHVTDAYRSAATSGTLA | -0.0505
12 | HMRPQELSSLNTNQMRLYNSLPEAFITAEAKDIADKLRYSERSLFRFLNESNLFTKTEHGSYAKKA | 0.133
13 | HMRPQYVDLFTKLSAEEAGAITSKLKELKVEYQLADNGSTIKVPQKDAAEIRLELANEGLPA | 0.141
14 | HMRPRQDRSEETRDRILDAVVELIAERGLAGVSHRAVADRAGVSLSATSYYFGSKAELERAALEEHYRR | -0.709
15 | HMRPSGEAVNAAYRLLKGANPSGNEGDLIQRAQEVAAILPKLNRSSAAAFAKDAKANGLTQAETIALWKGS | 0.225
16 | HMRPTYRTRLEVLINNPAISGRDLDFAQSLLSYYERKGRLSAGRVKWVTTLEERYSPENLAASAAK | -0.828
17 | HMRQFEPVEGYNPYADKNELHGYEYWGAKFADSRSPEETAWIKQQIDDENEDRRFISEAGLA | -0.0012
18 | HMRQQQISAAIKTSVNGTVDYYVRRLPERDPRGDFLEVWDDLQKVIQAAHGIQVSHDELYEYFRRLK | -0.337
19 | HMRQQSLHSLYRDHHSWLQNWLRRQLGNTWDAADLSQDTFIKVLASSQSVAEIREPRAYLLTVGKRL | -0.17
20 | HMRQSDIAAAFRESILRSSKGFQYLHTRDFVTALRRRGIHLSEVEANSWIAREKTYFVDSALDHSENRLWI | -1.6
21 | HMRQSIHTALQLLTPREEEVLNLLVSGKSNKQVAEHFSLSSKTIERHRSSVMRKLDASSFAQLVRIAALR | -3.51
22 | HMRQYPSGVFKEEGVKAVYIHAGTPFLVIAAQYKIPLARLFEWNNLLPSTEARISQVIYLERPG | -3.67
23 | HMRRARVAGKGHFTGEDAMAVYRELEALFGETETLYLPGHRPFEAVLSKLALIGVPEKNTVPYTFAFVET | -0.433
24 | HMRREIRLTVTEEIVLMKFLLTQIPYKNRDNFKTLLNDRQIRVNGSVVTWYNHPLKPGQEVTIGWFKM | -0.168
25 | HMRRPRGVFNLVPGKRFGFITPDGGGEDVFAHLANVRAGHVAEDRNAVEYGIGRGPDGRDQAVDIVPMP | -0.128
26 | HMRRQRNPEIFDQLVNKFHFTFTQTQQLKQLIKRWHMLFPGKSLKSAIQGYKSAKEILTYINDSLDVVE | 0.124
27 | HMRRRTLRQGATGSDVHAVQRLLNVDGAGLRTDGIFGPATERAVIAYQRKHGLAVDGVVGRETWTALLG | -0.61
28 | HMRRSDLVTQGDEILKRLQWNQQQAKDFLNQHLKASSRQQLTDEQLLNFNMLLEEQLVKSME | 0.103
